Measurements from US20200024316A1 (GENOIMMUNE THERAPEUTICS, published 2020).

Target: T1, HLA-A0201 on T2 cells (human)
T1 construct: MHC class I molecule on T2 cells; also called HLA-A0201 molecule; HLA-A2
Assay: T2 cell HLA-A0201 assay, flow cytometry with FITC anti-HLA-A0201 mAb, peptide 100 µM
Protocol: Cells were collected by centrifugation of the cell culture at 200 g for 5 minutes. […] The mean fluorescence intensity (MFI) was then detected and analyzed by flow cytometer (BD FACSJazz™) and its software. The fluorescence index (FI) was calculated by using the following formula:

B1: wild-type peptide TLISSLRPI (peptide)
peptide: TLISSLRPI
notes: Made by solid phase synthesis, purified by reverse phase HPLC, purity >90%
Average fluorescence intensity: 672
FI (fluorescence index): 1.99

TLISSLMPL [variant peptide TLISSLMPL]
Average fluorescence intensity: 692
FI (fluorescence index): 2.08

TLISSLMPV [variant peptide TLISSLMPV]
Average fluorescence intensity: 714
FI (fluorescence index): 2.18

TMISSLMPV [variant peptide TMISSLMPV]
Average fluorescence intensity: 776
FI (fluorescence index): 2.46

B2: mutant peptide TLISSLMPI (peptide)
peptide: TLISSLMPI
notes: Made by solid phase synthesis, purity >90%; also called peptide (a); tumor antigen peptide
Average fluorescence intensity: 683
FI (fluorescence index): 2.04

TMISSLMPI [variant peptide TMISSLMPI]
Average fluorescence intensity: 701
FI (fluorescence index): 2.12

TMISSLMPL [variant peptide TMISSLMPL]
Average fluorescence intensity: 764
FI (fluorescence index): 2.4
